Target: the molecule itself
Test: X-ray crystal structure of GmPDH1-NADP+-citrate, 1.69 A
Method: Crystals of GmPDH1 M219T/N222D formed in 16% (w/v) PEG 8000, 40 mM potassium phosphate dibasic, and 20% (v/v) glycerol. All crystals were flash-frozen in liquid nitrogen with mother liquor supplemented with 25% glycerol as a cryoprotectant.
The GmPDH1 structure was solved by single-wavelength anomalous dispersion (SAD) phasing. Diffraction data collected at beamline 19ID of the Argonne National Laboratory Advanced Photon Source were indexed, integrated, and scaled using HKL3000⁴⁸. SHELX⁴⁹ was used to determine initial SeMet positions and to estimate initial phases from the peak wavelength data set. SeMet positions and parameters were refined in MLPHARE⁵⁰. Solvent flattening was performed with DM⁵¹, and ARP/wARP⁵² was used to build an initial model. Iterative rounds of manual model building and refinement were performed with COOT⁵³ and PHENIX⁵⁴, respectively. The resulting model was used for molecular replacement into the higher resolution native data set using PHASER⁵⁵. Iterative rounds of manual model building and refinement, which included translation-libration-screen (TLS) models, used COOT and PHENIX, respectively. The native GmPDH1 structure was used for molecular replacement to solve the GmPDH1 N222D and GmPDH1 M219T/N222D structures. Each mutant structure was built and refined using the same method as the wild-type enzyme. […]

B1: Glycine max (soybean) prephenate dehydrogenase GmPDH1, wild type (enzyme)
chain: MSTSSSSQSLKIGIVGFGNFGQFLAKTMIKQGHTLTATSRSDYSELCLQMGIHFFRDVSAFLTADIDVIVLCTSILSLSEVVGSMPLTSLKRPTLFVDVLSVKEHPRELLLRELPEDSDILCTHPMFGPQTAKNGWTDHTFMYDKVRIRDEVICSNFIQIFATEGCKMVQMSCEEHDRAAAKSQFITHTIGRTLGEMDIQSTPIDTKGFETLVKLKETMMRNSFDLYSGLFVYNRFARQELENLEHALHKVKETLMIQRTNGEQGHKRTES
notes: also called Gm18g02650; 18g02650; not shown: N-terminal 6x-His tag from the pET28a vector
- binding result: binds

Source: patent US20250136952A1 (WISCONSIN ALUMNI RESEARCH FOUNDATION, published 2025)
